Literature values in PMC7550652.

Target: Calmodulin (Homo sapiens) (UniProt P0DP23)

**Q.** For ERα (from UniProt P03372), which Kd is on record?
**A.** 0.16 nM
